Measured values published in patent US20260116991A1 (HAINAN SIMCERE ZAIMING PHARMACEUTICAL, published 2026).
Positions count from the first letter of the chain named. Several values for one entry are separate records, joined by “and”; a condition that tells them apart may be missing. Equal entries are not always repeated. One block for each binder: values may come before it.

What was measured:
[1] = molecular target: T1, polypeptide GC3pep of human GPC3 (Ala524-Lys563) (human); assay: ELISA, coated peptide
T1 construct: Residues Ala524-Lys563 of human GPC3 (NCBI NM_004484.3); coated on the ELISA plate; also called membrane proximal polypeptide GC3pep
T1 peptide: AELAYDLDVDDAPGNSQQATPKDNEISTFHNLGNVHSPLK

[2] = molecular target: T2, GPC3 on HepG2 cells (human, UniProt P51654 25-554); assay: FACS on HepG2 cells
T2 construct: whole, on cells; also called glypican-3

[3] = molecular target: T3, murine GPC3-His protein (Sino Biological, Cat. No. 50989-M08B) (murine, UniProt Q8CFZ4 25-558); assay: ELISA, coated antigen
T3 construct: Bought protein; also called murine GPC3 protein; mouse GPC3-his protein; not shown: His tag
T3 sequence (Q8CFZ4 25-558 limits assumed): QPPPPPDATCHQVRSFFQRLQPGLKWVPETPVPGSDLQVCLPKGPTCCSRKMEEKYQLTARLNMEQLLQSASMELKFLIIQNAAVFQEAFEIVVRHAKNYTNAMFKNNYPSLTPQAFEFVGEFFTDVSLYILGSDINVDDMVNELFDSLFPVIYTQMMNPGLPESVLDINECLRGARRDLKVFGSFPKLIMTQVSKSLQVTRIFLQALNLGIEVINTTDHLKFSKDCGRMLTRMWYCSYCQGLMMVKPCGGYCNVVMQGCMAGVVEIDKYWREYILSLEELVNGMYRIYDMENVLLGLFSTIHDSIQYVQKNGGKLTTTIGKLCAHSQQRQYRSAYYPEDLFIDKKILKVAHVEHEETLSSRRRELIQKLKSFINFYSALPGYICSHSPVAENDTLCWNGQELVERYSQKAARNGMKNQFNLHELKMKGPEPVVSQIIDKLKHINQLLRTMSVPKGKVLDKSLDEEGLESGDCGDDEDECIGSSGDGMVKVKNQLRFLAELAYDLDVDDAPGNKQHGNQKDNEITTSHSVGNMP

B1: F1.3.9 human-murine chimeric antibody (antibody, human IgG1, kappa, V domains shown)
VH: QVQLQQPGTELVKPGASVKLSCKASGYTFTSYWIHWVKQRPGQGLEWIGNINPPNAGTNYNEKFKSKATLTVDKSSSTAYMQLSSLTSEDSAVYYCARGRWLLHDYWGQGTTLTVSS
VL: DIQMTQSPASLSISVGETVTITCRASENIYSNLAWYQQKQGKSPQLLVYGTKNLAEGVPSRFSGSGSGTQYSLKINSLQSEDFGNYYCQHFWGTPYTFGGGTKLEILR
notes: Chimeric
binding result [1]: no binding (tested: 100 nM)

B2: GC33 IgG (antibody, V domains shown)
VH: QVQLVQSGAEVKKPGASVKVSCKASGYTFTDYEMHWVRQAPGQGLEWMGALDPKTGDTAYSQKFKGRVTLTADKSTSTAYMELSSLTSEDTAVYYCTRFYSYTYWGQGTLVTVSS
VL: DVVMTQSPLSLPVTPGEPASISCRSSQSLVHSNRNTYLHWYLQKPGQSPQLLIYKVSNRFSGVPDRFSGSGSGTDFTLKISRVEAEDVGVYYCSQNTHVPPTFGQGTKLEIKR
notes: Complete IgG form of the control antibody GC33; also called codrituzumab
EC50 [2]: 1.56 nM and 1.21 nM

B3: F1.110.24 human-murine chimeric antibody (antibody, human IgG1, kappa, V domains shown)
VH: EVKLVESGGGLVQPGGSLKLSCAASGFTFSDFYMYWVRQTPEKRLEWVAFISNGGGSTYYPDTVKGRFTISRDNVKNTLYLQMSRLKSEDTAMYYCARPDTSWFAYWGQGSLVTVSA
VL: DIQMTQTTSSLSASLGDRVTISCRASQDIDNYLNWYQQKPDGTVKVLISYTSRLHSGVPSRFSGSGSGTDYSLTISNLEQEDIATYFCQQGNTLPWTFGGGTKLEIKR
notes: Chimeric
binding result [1]: no binding (tested: 100 nM)

B4: F1.78.24 human-murine chimeric antibody (antibody, human IgG1, kappa, V domains shown)
VH: QVQLQQSGAELVKPGASVKMSCKASGYTFTTYPIEWMKQNHGKSLEWIGNFHPYNDDTNYNVKFKGKATLTVEKSSSTVYLELSRLTSDDSALYYCARRREYYGSFDVWGTGTTVTVSS
VL: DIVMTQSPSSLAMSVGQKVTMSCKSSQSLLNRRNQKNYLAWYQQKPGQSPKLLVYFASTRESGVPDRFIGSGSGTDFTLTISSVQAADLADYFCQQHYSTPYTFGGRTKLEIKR
notes: Chimeric
binding result [1]: no binding (tested: 100 nM)

B5: F1.73.9 human-murine chimeric antibody (antibody, human IgG1, kappa, V domains shown)
VH: QVQLKQSGAELVRPGASVKLSCKASGYTFTDYYINWVKQRPGQGLEWIARIYPGSGNTYYNEKFKGKATLTAEKSSSTAYMQFSSLTSEDSAVYFCACSTYYTMDYWGQGTSVTVSS
VL: QIVLTQSPAIMSASLGERVTMTCTASSGVSSSYLHWYQQKPGSSPKLWIYTTSNLASGVPARFSGSGSGTSYSLTISSMEAEDAATYYCHQYHRSPYTFGGGTKLEIKR
notes: Chimeric
binding result [1]: no binding (tested: 100 nM)

B8: hAb001H1L1b (antibody, human IgG1, V domains shown)
VH: EVQLVESGGGLVQPGGSLRLSCAASGFSFNTNAMNWVRQAPGKGLEWVGRIRSKSNNYATYYADSVKDRFTISRDDSKNSLYLQMNSLKTEDTAVYYCVRDGYYVLFAYWGQGTLVTVSS
VL: DIVMTQTPLSLPVTPGEPASISCRFSQSIVNSNANTYLEWFLQKPGQSPQLLIYKVSNRFSGVPDRFSGSGSGTDFTLKISRVEAEDVGVYYCFQGSHVPFTFGQGTKLEIK
notes: Humanized F2.169.2, H1+L1b
EC50 [2]: 0.918 nM
Max MFI [2]: 4090

B9: hAb007LH3L1a (antibody, human IgG1, V domains shown)
VH: B2 VH with Q1E, A16S, A50T, L51I, K54E, D57N, S61N, T87R, F99P, Y102L
VL: B8 VL with F25S, I29F, N31H, N33D, A34G, N35D, E39Q, F41Y, F101Y
notes: Humanized F3.81.19
binding result [3]: no binding

B10: hAb007LH3L1 (antibody, human IgG1, V domains shown)
VH: B2 VH with Q1E, A16S, A50T, L51I, K54E, D57N, S61N, T87R, F99P, Y102L
VL: B8 VL with F25S, I29F, N31H, A34G, N35D, E39Q, F41Y, F101Y
notes: Humanized F3.81.19
binding result [3]: no binding

B11: hAb007LH2L1b (antibody, human IgG1, V domains shown)
VH: EVQLVQSGAEVKKPGSSVKVSCKASGYTFTDYEMHWVRQAPGQGLEWMGTIDPETGNTAYNQKFKGRVTITADKSTSTAYMELSSLRSEDTAVYYCTRPYSLTYWGQGTLVTVSS
VL: B8 VL with F25S, I29F, N31H, A34R, N35D, E39Q, F41Y, F101Y
notes: Humanized F3.81.19
binding result [3]: no binding

B12: hAb007LH3L1b (antibody, human IgG1, V domains shown)
VH: B11 VH with I70L
VL: B8 VL with F25S, I29F, N31H, A34R, N35D, E39Q, F41Y, F101Y
notes: Humanized F3.81.19
binding result [3]: no binding

Now from value to binder:

binding result [1]: no binding (tested: 100 nM)
B6: F1.62.9 human-murine chimeric antibody (antibody, human IgG1, kappa, V domains shown)
VH: QVQLQQSDAELVKPGASVKISCKVSGYIFTDHTIHWMKQRPEQGLEWIGYIYPRDGSIKYNENFKGKATLTADKSSSATYMQLNSLTSEDSAVYFCARPIYYDYAYYFDYWGQGTTLTVSS
VL: DVVMTQSPLSLPVSLGDQASISCRSRQSLVHSNGNTYLHWYLQKPGQSPKVLIYKVSNRFSGVPDRFSGSGSGTDFTLKISRVEAEDLGVYFCSQSTHVPYTFGGGTKLEIKR
notes: Chimeric

binding result [1]: no binding (tested: 100 nM)
B7: F1.136.7 human-murine chimeric antibody (antibody, human IgG1, kappa, V domains shown)
VH: EVQLQQSGPVMVKPGPSVKISCQTSGFTFTDYYIHWVKQSHGKSLEWIGLVFPYDGGTNYNQKFKDKATLTLDTSSSTAYMELNSLTSEDSAVYYCARAGGFSYALNYWGQGTSVTVSS
VL: DIQMTQSPSSLSASLGGKVTITCKASQDINNYIAWYQHKPGKGPRLLIHFTSTLQPGIPSRFSGSGSGRDYSFSISNLEPEDIATYYCLQYDNLLLTFGAGTKLELKR
notes: Chimeric

binding result [1]: no binding (tested: 100 nM)
B13: F1.42.8 human-murine chimeric antibody (antibody, human IgG1, kappa, V domains shown)
VH: HVQLQQPGAELVKPGASVKLSCKASGYTFTSYWMHWVRQRPGQGLEWIEMIHPNSGSTNYNEKFKSKATLTVDKSSSTAYMQLSSLTSEDSAVYYCARGNYNSSLYAMDYWGQGTSVTVSS
VL: DIQMTQTTSSLSASLGDRVTISCSASQGISNYLNWYQQKPDGTVKLLIYYASNLHSGVPSRFSGSGSGTAYSLTISNLEPEDIATYYCQQYSILPYTFGGGTKLEIKR
notes: Chimeric

binding result [1]: no binding (tested: 100 nM)
B14: F4.13.7 human-murine chimeric antibody (antibody, human IgG1, kappa, V domains shown)
VH: QVQLQQPGAELVKPGASVKLSCKASGYTFTNNWVHWVKQRPGQGLEWTGMIHPDSGSTIYNEKFQSKATLTVDKSSSTAYMQLSSLTSEDSAVYYCARGYYDSSSYYAMDYWGQGTSVTVSS
VL: B13 VL with D1N, S30F, A51T, N53S, A70D, I93K, Y96W
notes: Chimeric

binding result [1]: no binding (tested: 100 nM)
B15: F1.2.14 human-murine chimeric antibody (antibody, human IgG1, kappa, V domains shown)
VH: RVQLQQSGAELVKPGASVRMSCKASGYTFTAYSIEWMKQNLGKSLEWIGNFRPYNDDTKYNENFKGRATLTVEKSSATVYLELSRLTSDDSAVYYCARSGPTDYFDYWGQGTTLIVSS
VL: DIQMTQSPASLSASVGETVTITCRASDNIYSYLAWYQQKQGQSPQLLVYNAKTLAEGVPSRFSGSGSVTQFSLKIISLQPEDFGTYYCQHHFGTPRTFGGGTKLEIKR
notes: Chimeric

binding result [1]: no binding (tested: 100 nM)
B16: F1.145.22 human-murine chimeric antibody (antibody, human IgG1, kappa, V domains shown)
VH: QVQLQQSGTDLARPGASVKLSCKASGYTFTSFGISWVKQRTGQGLEWIGEIYPRSGSPYYNEKFTGKATLTADKSSSTAYMELRSLTSEDSAVYFCAKDFGSSYVFDYWGQGTALTVSS
VL: B15 VL with D27E, A34T, Q42K, V68G, I76N, F92Y, R96P, G100T, E105D, I106L
notes: Chimeric

binding result [1]: no binding (tested: 100 nM)
B17: F1.57.21 human-murine chimeric antibody (antibody, human IgG1, kappa, V domains shown)
VH: QVQLQQSGAELARPGASVKLSCKASGYTFTSYGISWVKQITGQGLEWIGEIYPRSESTYYNEKFKGKATLTADKSSSTAYMELRSLTSEDSAVYFCARDYGNIYSFAYWGQGTLVTVSA
VL: B15 VL with A25T, D27E, Q42K, V68G, I76N, T85S, F92Y, R96L, G100A, I106L
notes: Chimeric

binding result [1]: no binding (tested: 100 nM)
B18: F1.21.8 human-murine chimeric antibody (antibody, human IgG1, kappa, V domains shown)
VH: EVQLQQSGPELVKPGASVKISCKTSGFLFTGHYMHWVKSSHGNILDWIGYIYPYNAISFYNQKFKGKATLTVDKSSNTAYMELRSLTSEDSAVYYCARGDYGNYVTAYWGQGTLVTVSA
VL: DVLMTQTPLSLPVSLGDQASISCRSSQSIVHSSGNTYLEWYLQKPGQSPKLLIYKVSNRFSGVPDRFSGSGSGTDFTLKISRVEAEDLGVYYCFQGSHLPWTFGGGTKLDIKR
notes: Chimeric

binding result [1]: no binding (tested: 100 nM)
B19: F1.111.11 human-murine chimeric antibody (antibody, human IgG1, kappa, V domains shown)
VH: EVQLQQSGPELVKPGASVKISCKASGYTFTDYYMNWVKQSHGKSLEWIGDIYPNNGDTTYNQRFKGKATLTVDKSSSTAYMELRSLASEDSAVYYCACPYNNPFGYWGQGTLVTVSA
VL: B6 VL with S7T, R26S, V51L, Y101W
notes: Chimeric

binding result [1]: no binding (tested: 100 nM)
B20: F1.115.8 human-murine chimeric antibody (antibody, human IgG1, kappa, V domains shown)
VH: EVQLQQSGPELVKPGASVKMSCKASGYTFTEYYMHWVKQSHGKSLEWIGYIYPNNGGNGYNQKFKGKATLTVDKSSSTAYMGLRSLTSEDSAVYYCVRGYYSNWYFDVWGTGTTVTVSS
VL: B18 VL with S33N, N35K, L99V, W101F, G105S, D110E
notes: Chimeric

binding result [1]: no binding (tested: 100 nM)
B21: F1.92.17 human-murine chimeric antibody (antibody, human IgG1, kappa, V domains shown)
VH: EVQLQQSGPELVKPGASVKMSCKASGYTFTDYNMHWVRQSHGKSLEWIGYINPNNGDTIYNQNFKGKATLTVNKSSSTAYMELRSLTSEDSAVYYCSRTITYYYSMDYWGPGTSVTVSS
VL: QIVLTQSPALMSASPGEKVTMTCSASSSVSYMYWYQQKPRSSPKPWIYLTSNLASGVPARFSGSGSGTSYSLTISSMEAEDAATYYCQQWSSNPLTFGAGTKLELKR
notes: Chimeric

binding result [1]: no binding (tested: 100 nM)
B22: F1.83.6 human-murine chimeric antibody (antibody, human IgG1, kappa, V domains shown)
VH: QVQLQQSGPELVKPGASVKISCKASGYAFSSSWMNWVKQRPGKGLEWIGRIYPGDGDTNYNGRFKGKATLTVDKSSSTAYMQLSSLTSEDSAVYFCARGGVFTMALDHWGQGTTLTVSS
VL: DIQMTQSPSSLSASLGGKVTITCKASQDINKYIAWYQHKPGKGPRLLIHYTSTLQPGIPSRFSGSGSGRDYSFSISNLEPEDIATYYCLQYDNLFTFGGGTKLEIKR
notes: Chimeric
